Experimental findings from patent publication US20240002479A1 (REGENTS OF THE UNIVERSITY OF MICHIGAN, published 2024) are described below.

Assay [1] concerns the target T1, DENV2 NS1 (dengue virus serotype 2 non-structural protein 1), wild type (Dengue virus 2, UniProt P29990 776-1127).
T1 sequence: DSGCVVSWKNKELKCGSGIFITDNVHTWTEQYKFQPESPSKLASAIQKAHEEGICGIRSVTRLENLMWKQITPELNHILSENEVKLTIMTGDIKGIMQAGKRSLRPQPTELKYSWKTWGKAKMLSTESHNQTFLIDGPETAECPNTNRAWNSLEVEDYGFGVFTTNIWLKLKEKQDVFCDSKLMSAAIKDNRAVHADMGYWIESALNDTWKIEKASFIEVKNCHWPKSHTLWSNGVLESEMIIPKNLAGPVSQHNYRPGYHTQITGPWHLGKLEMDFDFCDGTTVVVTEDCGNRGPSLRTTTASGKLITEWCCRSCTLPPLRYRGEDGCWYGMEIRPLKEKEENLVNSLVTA
Kind of assay: BLI, NS1 on anti-His tips; full-length 2B7, not Fab.

In assay [2] the target is T1, DENV2 NS1 (dengue virus serotype 2 …). The experiment in a line: direct ELISA, 2B7 titrated on purified DENV2 NS1, OD450. Background: ELISA stands for enzyme-linked immunosorbent assay.
For assay [3] the target is unchanged. Kind of assay: BLI, NS1 on anti-His tips, n=2 preparations.
Assay [4] shares this target. The experiment in a line: BLI, NS1 on anti-His tips; Fab, not full-length IgG. A general note: BLI is a label-free optical method that tracks binding on a fibre tip over time.

B1: anti-DENV NS1 IgG2b mouse monoclonal antibody (mAb) 2B7 (antibody, V domains shown)
VH: EVQLQQSGPELVKPGASVKMSCKASGCTLTNCFMHWMKQKPGQDLEWIGYINPYNDMTKYSENFKGKATLTSDKSSSTAFMELSSLTSEDSAVYYCARGYLLRTGCFDYWGQGTTLTVSS
VL: NIVLTQSPASLAVSLGQRATISCRASESVDSYGYSFMHWYQQKPGQPPKVLIYLASNLESGVPARFSGSGSRTDFTLTIDPVEADDAATYYCQQNNENPLTFGAGTKLELKR
As to B1, the Kd – broadly, the equilibrium constant for the complex coming apart – in assay [1] was 4.8 nM. Besides, the EC50 (read off the curve) – broadly, the concentration giving half of the maximal effect – in assay [2] is approximately 5 ng/mL.

B2: 2B7 Fab (Fab, V domains shown)
VH: B1 VH
VL: NIVLTQSPASLAVSLGQRATISCRASESVDSYGYSFMHWYQQKPGQPPKVLIYLASNLESGVPARFSGSGSRTDFTLTIDPVEADDAATYYCQQNNENPLTFGAGTKLELK
In the case of B2, the Kd in assay [3] was 5 to 8 nM; in assay [4], 8.3 nM.
